This is an account of results in PMC5481204.

The assay deals with full length T216A Mos1 transposase (Drosophila mauritiana). The assay is described as follows: crystal structure; Mos1 strand transfer complex (STC): T216A Mos1 transposase and strand transfer product DNA at 50 uM each in 25 mM PIPES-NaOH pH 7.5, 250 mM NaCl, 20 mM MgCl2, 1 mM DTT; sitting drop, 30% (v/v) MPD, 0.1 M sodium cacodylate pH 6.5, 0.2 M magnesium acetate; 3.3 Å; one STC in the asymmetric unit.

“full length T216A Mos1 transposase (enzyme)”: the stoichiometry N was 2.
